Target: Recombinant EGFR/His (UniProt P00533)
Test: SPR (Biacore T200), antibody captured on anti-human Fc, EGFR/His as analyte, 1:1 fit

- Kd: 2.8 nM
Substance: αHER2×αEGFR LDAb (trastuzumab IgG2 azide clicked to cetuximab IgG2 DBCO) (bispecific antibody)
